The source of these data is patent publication US20160122426A1 (DONG A SOCIO, published 2016).

In one test the target is T1, human VEGF (human, UniProt P15692-4 27-191).
T1 construct: Bought recombinant protein; also called hVEGF; human VEGF-A
The experiment in a line: ELISA, human VEGF coated, anti-human Fc-HRP, absorbance 450 nm [a]. The protocol: 1.5 ng of human VEGF diluted in 150 μL of buffer solution was placed in 96-well immune plate (Nunc, USA), and adsorbed at 4° C. overnight, followed by washing 3 times with a buffer solution containing 0.1% Tween 20. Then, they were reacted with a buffer solution including 1% bovine serum albumin (Sigma, USA) for 1 hr at room temperature, and washed 3 times. Then each well was treated with 150 μL of serially diluted antibody (1 ng/mL, 10 ng/mL, 30 ng/mL, 100 ng/mL, 1000 ng/mL and 3000 ng/mL) They were allowed to react for 1 hr at room temperature so that antigens may bind to antibodies, followed by washing 3 times with a buffer solution.
Each well was treated at 150 μL per well with anti-human immunoglobulin Fc-HRP antibody (AbSerotec, USA) diluted 1:20000 and allowed to react for 1 hr at room temperature. After the reaction was completed, washing was performed 3 times with a buffer solution, followed by addition of 150 μL of TMB (Sigma, USA) and color development for 10 min. The reaction was terminated with 1N sulfuric acid solution, and absorbance was measured at 450 nm using a spectrophotometer (Molecular Device, USA).
In general terms: An ELISA detects its analyte on a solid surface through an enzyme-linked reagent.

Another test addresses T2, mouse VEGF (mouse, UniProt Q00731-2 27-190).
T2 construct: Bought recombinant protein; also called mVEGF-A; mouse VEGF-A
T2 sequence (looked up): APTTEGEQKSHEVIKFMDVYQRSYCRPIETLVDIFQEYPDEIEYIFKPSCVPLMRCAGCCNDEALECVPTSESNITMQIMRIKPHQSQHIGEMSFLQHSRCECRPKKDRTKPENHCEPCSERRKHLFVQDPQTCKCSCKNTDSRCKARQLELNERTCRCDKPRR
Description: ELISA, 0.2 µg/ml VEGF coated, scFv or IgG serially diluted. As to the method: ELISA plates were coated with 0.2 μg/ml of human VEGF and mouse VEGF (R&D systems, USA) respectively, and the purified proteins obtained in Example 5 in the form of scFv expressed by HB2151 or IgG expressed by 293F cells were incubated at serially diluted concentrations.

B1: clone F (antibody, V domains shown)
VH: AVTLHESGGGLQTPGGALSLVCKASGFTFSSHGMQWVRQAPGKGLEYVAGISSDGSWTGYGAAVKGRATISRDNGQSTVRLQLNNLRAEDTATYYCARDFSTSYGADSIDAWGHGTEVIVSS
VL: LTQPSSVSANPGETVKITCSGGSNSAYGYGWYQQKSPGSAPVTLIYWDDKRPSDIPSRFSGSASGSTATLTITGVRAEDEAVYFCGAWEYSSDVGIFGAGTTLTVL
notes: Clone from an immunized chicken scFv phage library; also called mother clone F; F clone
For B1, the binding result with human VEGF and with mouse VEGF was “binds” each time.
